Data published in publication PMC5146981, “MMP-13 is constitutively produced in human chondrocytes and co-endocytosed with ADAMTS-5 and TIMP-3 by the endocytic receptor LRP1” (Matrix Biology, 2016).
Read-outs that look alike come from different tables or passages of the source. Each block holds one molecule with its values, some of them ahead of it.

Legend:
[1] = molecular target: purified human full-length LRP1 (low-density lipoprotein receptor-related protein 1) (human)
[2] = molecular target: purified human full-length LRP1 (low-density lipoprotein receptor-related protein 1) (human); test: ELISA; solid-phase binding; full-length LRP1 (5 nM in TNC) coated on microtiter plates overnight at 4 °C, blocked with 3% BSA; MMPs 0-50 nM for 3 h at room temperature; detected with anti-MMP antibodies and HRP secondary antibody; apparent KD (K_D,app)
[3] = molecular target: purified human full-length LRP1 (low-density lipoprotein receptor-related protein 1); test: solid-phase binding assay (ELISA) on immobilized LRP1; conditions: point at 50 nM MMP, read off a plot
[4] = molecular target: purified human full-length LRP1 (low-density lipoprotein receptor-related protein 1); test: competition solid-phase binding assay (ELISA) on immobilized LRP1; conditions: 200 nM proMMP-1(E200A) as competitor of 6 nM proMMP-13(E223A); detection with anti-FLAG M2 antibody; read off a plot
[5] = molecular target: purified human full-length LRP1 (low-density lipoprotein receptor-related protein 1) (human); test: ELISA; full-length LRP1 coated; proMMP-13(E223A) 0-40 nM in the absence or presence of 50 nM ADAMTS-5, 250 nM ADAMTS-4 or 50 nM TIMP-3 plus 50 μM CT1746; apparent KD (K_D,app)
[6] = molecular target: LRP1 ligand-binding cluster I (human) (UniProt Q07954); test: ELISA; purified LRP1 fragments (clusters I to IV) coated on microtiter plates; proMMP-13(E223A) or Hpx_(MMP-13) 0-200 nM; detected with anti-MMP-13 181-14G11; extrapolated apparent KD (K_D,app)
[7] = molecular target: LRP1 ligand-binding cluster IV (human) (UniProt Q07954); test: as above
[8] = molecular target: T1, LRP1 ligand-binding cluster II (human, UniProt Q07954 852-1182); test: as above
T1 construct: also called soluble LRP1 cluster II
T1 sequence (looked up): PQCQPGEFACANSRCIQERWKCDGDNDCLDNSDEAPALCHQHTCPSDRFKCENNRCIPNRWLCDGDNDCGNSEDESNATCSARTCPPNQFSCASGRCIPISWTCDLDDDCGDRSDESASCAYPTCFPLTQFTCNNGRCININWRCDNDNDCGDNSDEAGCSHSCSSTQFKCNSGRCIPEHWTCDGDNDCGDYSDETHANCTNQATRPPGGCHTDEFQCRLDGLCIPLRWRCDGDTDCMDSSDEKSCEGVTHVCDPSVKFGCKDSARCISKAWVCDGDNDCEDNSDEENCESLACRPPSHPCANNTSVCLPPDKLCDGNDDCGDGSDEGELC

[9] = molecular target: LRP1 ligand-binding cluster III (human, UniProt Q07954 2522-2940); test: as above
Chain of LRP1 ligand-binding cluster III (Q07954 2522-2940): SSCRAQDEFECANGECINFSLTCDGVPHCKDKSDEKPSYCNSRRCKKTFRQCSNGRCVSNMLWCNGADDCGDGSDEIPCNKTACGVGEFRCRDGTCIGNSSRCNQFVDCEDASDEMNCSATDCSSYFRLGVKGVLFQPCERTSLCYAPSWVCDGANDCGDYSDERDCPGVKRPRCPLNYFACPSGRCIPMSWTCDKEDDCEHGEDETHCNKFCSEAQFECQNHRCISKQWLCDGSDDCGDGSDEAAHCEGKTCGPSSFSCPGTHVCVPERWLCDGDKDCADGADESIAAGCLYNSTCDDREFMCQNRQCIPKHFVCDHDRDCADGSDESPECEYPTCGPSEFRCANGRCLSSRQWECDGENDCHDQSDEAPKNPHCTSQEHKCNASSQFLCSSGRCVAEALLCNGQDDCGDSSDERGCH

Chain of LRP1 ligand-binding cluster IV (human) (Q07954 20-4544): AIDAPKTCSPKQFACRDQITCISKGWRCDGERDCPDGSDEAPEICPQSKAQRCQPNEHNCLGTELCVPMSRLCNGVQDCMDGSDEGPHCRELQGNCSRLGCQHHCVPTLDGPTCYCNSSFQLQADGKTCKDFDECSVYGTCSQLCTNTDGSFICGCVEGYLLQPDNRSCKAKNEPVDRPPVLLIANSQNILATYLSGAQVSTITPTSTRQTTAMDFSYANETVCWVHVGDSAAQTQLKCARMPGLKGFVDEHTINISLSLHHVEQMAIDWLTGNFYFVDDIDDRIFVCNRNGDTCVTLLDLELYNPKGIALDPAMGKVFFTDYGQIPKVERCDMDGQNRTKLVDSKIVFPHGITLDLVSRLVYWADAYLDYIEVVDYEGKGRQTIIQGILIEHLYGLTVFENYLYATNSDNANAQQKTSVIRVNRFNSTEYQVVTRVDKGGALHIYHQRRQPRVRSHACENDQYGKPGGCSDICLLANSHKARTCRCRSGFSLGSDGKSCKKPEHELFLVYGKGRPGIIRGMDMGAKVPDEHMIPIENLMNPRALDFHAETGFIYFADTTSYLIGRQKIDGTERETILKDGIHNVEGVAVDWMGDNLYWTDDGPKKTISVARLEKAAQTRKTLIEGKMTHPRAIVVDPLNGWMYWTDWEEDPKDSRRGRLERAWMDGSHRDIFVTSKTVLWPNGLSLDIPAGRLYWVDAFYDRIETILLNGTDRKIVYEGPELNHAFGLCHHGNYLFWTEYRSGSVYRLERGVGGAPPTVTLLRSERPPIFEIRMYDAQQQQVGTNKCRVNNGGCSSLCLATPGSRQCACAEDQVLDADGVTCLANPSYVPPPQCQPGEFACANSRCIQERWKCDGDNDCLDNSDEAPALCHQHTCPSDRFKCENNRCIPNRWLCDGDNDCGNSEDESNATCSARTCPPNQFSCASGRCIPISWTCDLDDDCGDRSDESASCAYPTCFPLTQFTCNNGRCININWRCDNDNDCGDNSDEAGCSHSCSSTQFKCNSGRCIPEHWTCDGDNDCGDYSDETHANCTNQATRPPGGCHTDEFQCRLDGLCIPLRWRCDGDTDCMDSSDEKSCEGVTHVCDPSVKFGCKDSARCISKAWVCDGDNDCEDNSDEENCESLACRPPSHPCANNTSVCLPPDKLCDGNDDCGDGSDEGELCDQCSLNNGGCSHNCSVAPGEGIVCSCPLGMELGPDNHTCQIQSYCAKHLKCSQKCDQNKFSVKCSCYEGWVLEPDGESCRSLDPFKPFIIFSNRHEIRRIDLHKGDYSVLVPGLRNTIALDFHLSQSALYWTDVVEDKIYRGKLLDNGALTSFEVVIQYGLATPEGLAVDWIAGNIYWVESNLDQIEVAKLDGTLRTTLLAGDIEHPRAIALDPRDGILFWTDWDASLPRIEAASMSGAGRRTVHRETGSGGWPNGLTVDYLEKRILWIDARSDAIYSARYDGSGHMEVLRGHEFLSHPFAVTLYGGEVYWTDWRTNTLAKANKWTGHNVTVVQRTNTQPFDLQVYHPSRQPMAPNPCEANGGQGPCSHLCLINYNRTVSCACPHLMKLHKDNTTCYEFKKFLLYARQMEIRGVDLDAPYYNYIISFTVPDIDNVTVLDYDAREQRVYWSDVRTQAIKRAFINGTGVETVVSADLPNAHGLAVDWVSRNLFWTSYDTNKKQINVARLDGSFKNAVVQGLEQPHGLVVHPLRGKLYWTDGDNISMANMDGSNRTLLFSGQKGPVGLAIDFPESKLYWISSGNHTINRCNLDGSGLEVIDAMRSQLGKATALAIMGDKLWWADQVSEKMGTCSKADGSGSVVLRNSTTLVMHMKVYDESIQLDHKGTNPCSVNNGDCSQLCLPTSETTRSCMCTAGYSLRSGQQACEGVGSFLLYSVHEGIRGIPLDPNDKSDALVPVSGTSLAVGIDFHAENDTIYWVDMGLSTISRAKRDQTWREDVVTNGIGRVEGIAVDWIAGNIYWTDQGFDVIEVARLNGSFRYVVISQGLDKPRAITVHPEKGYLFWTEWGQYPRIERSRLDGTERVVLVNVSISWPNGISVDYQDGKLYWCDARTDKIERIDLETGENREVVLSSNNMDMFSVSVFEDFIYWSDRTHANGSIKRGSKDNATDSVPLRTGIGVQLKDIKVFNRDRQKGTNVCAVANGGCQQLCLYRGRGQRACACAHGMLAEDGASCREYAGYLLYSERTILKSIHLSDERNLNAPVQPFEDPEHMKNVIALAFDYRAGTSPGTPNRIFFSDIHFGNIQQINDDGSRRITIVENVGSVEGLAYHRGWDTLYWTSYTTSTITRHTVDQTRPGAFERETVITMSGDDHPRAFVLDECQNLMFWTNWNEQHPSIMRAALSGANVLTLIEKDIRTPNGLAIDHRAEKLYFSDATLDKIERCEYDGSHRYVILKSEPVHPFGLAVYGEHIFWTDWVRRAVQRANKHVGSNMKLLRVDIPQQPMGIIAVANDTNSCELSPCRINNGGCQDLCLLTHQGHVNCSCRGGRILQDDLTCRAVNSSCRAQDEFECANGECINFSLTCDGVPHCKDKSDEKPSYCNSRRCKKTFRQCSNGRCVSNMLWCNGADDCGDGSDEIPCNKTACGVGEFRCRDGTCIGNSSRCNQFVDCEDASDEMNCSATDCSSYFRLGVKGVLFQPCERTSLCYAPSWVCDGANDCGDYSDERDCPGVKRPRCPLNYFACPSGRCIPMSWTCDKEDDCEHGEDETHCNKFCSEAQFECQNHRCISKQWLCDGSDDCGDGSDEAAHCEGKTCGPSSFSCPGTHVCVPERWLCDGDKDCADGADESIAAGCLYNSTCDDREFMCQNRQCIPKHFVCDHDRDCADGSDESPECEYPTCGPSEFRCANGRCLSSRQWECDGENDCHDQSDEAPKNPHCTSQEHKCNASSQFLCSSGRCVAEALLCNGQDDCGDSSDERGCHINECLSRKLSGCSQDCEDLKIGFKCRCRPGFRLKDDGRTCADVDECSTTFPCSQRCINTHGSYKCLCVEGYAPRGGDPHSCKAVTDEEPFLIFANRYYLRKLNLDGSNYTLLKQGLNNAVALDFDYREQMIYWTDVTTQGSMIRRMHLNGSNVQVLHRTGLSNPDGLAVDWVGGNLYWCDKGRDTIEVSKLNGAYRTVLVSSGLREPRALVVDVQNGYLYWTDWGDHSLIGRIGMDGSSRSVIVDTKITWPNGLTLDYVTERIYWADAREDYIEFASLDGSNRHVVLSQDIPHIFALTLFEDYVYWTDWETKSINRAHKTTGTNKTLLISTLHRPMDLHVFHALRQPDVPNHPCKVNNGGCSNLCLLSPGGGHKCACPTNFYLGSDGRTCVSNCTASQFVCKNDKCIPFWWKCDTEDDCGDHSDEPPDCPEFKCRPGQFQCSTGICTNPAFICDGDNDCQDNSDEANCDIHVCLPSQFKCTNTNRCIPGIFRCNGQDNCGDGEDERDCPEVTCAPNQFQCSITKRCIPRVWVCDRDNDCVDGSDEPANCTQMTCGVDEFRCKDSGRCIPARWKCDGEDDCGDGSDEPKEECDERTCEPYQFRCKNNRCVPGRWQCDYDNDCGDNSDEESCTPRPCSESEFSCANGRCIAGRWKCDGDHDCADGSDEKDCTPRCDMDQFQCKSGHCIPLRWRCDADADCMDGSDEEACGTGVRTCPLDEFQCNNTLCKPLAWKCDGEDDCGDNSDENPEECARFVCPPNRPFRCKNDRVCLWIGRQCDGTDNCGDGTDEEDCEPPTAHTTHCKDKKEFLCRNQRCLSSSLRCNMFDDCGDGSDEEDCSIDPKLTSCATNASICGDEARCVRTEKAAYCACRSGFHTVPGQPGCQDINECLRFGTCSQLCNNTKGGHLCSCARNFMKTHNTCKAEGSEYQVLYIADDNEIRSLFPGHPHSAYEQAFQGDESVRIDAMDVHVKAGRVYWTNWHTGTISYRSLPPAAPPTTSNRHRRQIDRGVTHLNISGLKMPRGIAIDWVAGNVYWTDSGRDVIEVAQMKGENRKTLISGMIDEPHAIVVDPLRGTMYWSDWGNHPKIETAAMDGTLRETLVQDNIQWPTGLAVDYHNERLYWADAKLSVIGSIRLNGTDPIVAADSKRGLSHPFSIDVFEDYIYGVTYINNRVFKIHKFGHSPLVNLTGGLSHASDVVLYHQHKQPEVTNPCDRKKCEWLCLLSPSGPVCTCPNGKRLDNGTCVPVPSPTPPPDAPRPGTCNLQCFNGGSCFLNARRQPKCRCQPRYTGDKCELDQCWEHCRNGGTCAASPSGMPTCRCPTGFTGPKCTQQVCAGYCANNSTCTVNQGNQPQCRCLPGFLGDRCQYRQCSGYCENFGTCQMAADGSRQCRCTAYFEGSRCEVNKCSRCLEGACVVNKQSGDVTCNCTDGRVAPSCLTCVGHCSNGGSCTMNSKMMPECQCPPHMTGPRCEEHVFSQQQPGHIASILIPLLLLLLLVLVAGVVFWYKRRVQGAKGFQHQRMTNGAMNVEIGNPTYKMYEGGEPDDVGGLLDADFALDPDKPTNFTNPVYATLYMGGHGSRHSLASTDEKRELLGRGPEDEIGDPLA
Chain of LRP1 ligand-binding cluster I (human) (Q07954 20-4544): as above

clearance of 10 nM exogenous proMMP-13 from the medium of human chondrocytes, 0-4 h, Western blot; inhibited by 500 nM RAP and in LRP1-silenced cells [1]: 70 min
Molecule: proMMP-13(WT), MMP-13 with a FLAG tag between the signal and propeptide

Kd [2]: 5.1 nM
Molecule: proMMP-1-1-13(E200A) (MMP-1_(1-258)-MMP-13_(264-451)) (enzyme)

response (absorbance at 450 nm) ([3]; detection with anti-MMP-3 (4B7.3) antibody): 0.25
Molecule: proMMP-3 E202A

Kd [2]: 3.8 nM
Molecule: MMP-13(E223A), activated form (from UniProt P45452 104-471) (enzyme)

response (absorbance at 450 nm) ([3]; detection with anti-MMP-1 (SB12e) antibody): 0.13
other: ProMMP-13 bound to LRP1 (% of amount bound without competitor) [4]: 100%
Molecule: proMMP-1 E200A

proMMP-13 (10 nM) found in the cell lysate after 1 h with human chondrocytes at 4 °C (surface binding); abolished in the presence of 500 nM RAP [1]: 25%
Kd [2]: 5.9 nM
Molecule: proMMP-13(WT), MMP-13 with a FLAG tag between the signal and propeptide (enzyme)

K D,app in the presence of 50 nM ADAMTS-5 [5]: 5.2 nM
K D,app in the presence of 50 nM TIMP-3 [5]: 8.2 nM
K D,app in the presence of 250 nM ADAMTS-4 [5]: 5.6 nM
Kd [6]: > 200 nM
Kd [7]: > 100 nM
Kd [8]: 17 nM
Kd [9]: 24 nM
Kd [2]: 6 nM
Molecule: proMMP-13(E223A) (from UniProt P45452 20-471) (enzyme)

Kd [6]: > 200 nM
Kd [7]: > 50 nM
Kd ([8]; both partners purified): 15 nM
Kd ([9]; both partners purified): 13 nM
Kd [2]: 2.7 nM
B1: hemopexin domain of MMP-13 (Hpx_(MMP-13)) (domain or fragment, human, UniProt P45452 284-471, looked up)
chain: CDPSLSLDAITSLRGETMIFKDRFFWRLHPQQVDAELFLTKSFWPELPNRIDAAYEHPSHDLIFIFRGRKFWALNGYDILEGYPKKISELGLPKEVKKISAAVHFEDTGKTLLFSGNQVWRYDDTNHIMDKDYPRLIEEDFPGIGDKVDAVYEKNGYIYFFNGPIQFEYSIWSNRIVRVMPANSILWC
notes: MMP-13 (collagenase 3), human, hemopexin domain released by autolysis; also called Hpx domain of MMP-13; source: from proMMP-13 incubated with 1 mM APMA at 37 °C for at least 16 h
